Measured values taken from US7019123.
Each block holds one substance with its values, some of them ahead of it.

What was measured:
bovine trypsin (bovine) = bovine trypsin (bovine) (UniProt P00760); experiment: enzyme inhibition; trypsin 48.5 pM
human plasmin (human) = human plasmin (human) (UniProt P00747); experiment: enzyme inhibition; human plasmin 50 pM
[1] = biological target: human plasma kallikrein (human) (UniProt P03952); experiment: enzyme inhibition; apparent Ki
[2] = biological target: bovine pancreatic kallikrein (bovine); experiment: enzyme inhibition; bovine pancreatic kallikrein 92.0 pM
[3] = biological target: bovine pancreatic kallikrein (bovine); experiment: enzyme inhibition; comparison of Ki values with aprotinin
[4] = biological target: bovine pancreatic kallikrein (bovine); experiment: enzyme inhibition, tight-binding fit; bovine pancreatic kallikrein 92 pM, PFR-AMC

Sequence of human plasmin (human) (P00747 97-810 limits assumed): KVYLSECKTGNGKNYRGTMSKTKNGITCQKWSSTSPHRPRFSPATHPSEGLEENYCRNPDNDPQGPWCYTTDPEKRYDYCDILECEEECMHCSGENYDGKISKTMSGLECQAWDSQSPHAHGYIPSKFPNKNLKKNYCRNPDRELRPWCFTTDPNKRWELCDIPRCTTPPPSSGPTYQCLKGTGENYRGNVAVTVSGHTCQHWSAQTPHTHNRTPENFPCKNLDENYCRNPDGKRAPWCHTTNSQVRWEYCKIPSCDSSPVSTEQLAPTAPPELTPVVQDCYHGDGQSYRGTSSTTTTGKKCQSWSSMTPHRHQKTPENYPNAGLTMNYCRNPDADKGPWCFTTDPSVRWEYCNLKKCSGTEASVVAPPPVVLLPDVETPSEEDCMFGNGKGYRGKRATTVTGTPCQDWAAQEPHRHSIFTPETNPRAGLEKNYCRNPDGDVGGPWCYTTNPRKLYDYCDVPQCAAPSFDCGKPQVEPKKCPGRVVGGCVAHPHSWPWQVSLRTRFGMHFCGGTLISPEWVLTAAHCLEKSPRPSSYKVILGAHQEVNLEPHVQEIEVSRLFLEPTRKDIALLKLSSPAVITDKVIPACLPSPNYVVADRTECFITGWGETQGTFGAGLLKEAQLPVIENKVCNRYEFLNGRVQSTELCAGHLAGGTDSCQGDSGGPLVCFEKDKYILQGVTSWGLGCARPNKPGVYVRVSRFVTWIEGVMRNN
Sequence of bovine trypsin (bovine) (P00760 24-246): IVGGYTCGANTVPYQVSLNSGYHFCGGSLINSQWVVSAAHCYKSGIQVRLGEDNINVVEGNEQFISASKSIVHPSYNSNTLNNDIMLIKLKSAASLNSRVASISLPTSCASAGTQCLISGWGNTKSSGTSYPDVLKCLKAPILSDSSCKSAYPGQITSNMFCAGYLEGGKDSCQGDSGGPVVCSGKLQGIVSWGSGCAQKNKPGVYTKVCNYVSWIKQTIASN
Sequence of human plasma kallikrein (human) (P03952 20-638 limits assumed): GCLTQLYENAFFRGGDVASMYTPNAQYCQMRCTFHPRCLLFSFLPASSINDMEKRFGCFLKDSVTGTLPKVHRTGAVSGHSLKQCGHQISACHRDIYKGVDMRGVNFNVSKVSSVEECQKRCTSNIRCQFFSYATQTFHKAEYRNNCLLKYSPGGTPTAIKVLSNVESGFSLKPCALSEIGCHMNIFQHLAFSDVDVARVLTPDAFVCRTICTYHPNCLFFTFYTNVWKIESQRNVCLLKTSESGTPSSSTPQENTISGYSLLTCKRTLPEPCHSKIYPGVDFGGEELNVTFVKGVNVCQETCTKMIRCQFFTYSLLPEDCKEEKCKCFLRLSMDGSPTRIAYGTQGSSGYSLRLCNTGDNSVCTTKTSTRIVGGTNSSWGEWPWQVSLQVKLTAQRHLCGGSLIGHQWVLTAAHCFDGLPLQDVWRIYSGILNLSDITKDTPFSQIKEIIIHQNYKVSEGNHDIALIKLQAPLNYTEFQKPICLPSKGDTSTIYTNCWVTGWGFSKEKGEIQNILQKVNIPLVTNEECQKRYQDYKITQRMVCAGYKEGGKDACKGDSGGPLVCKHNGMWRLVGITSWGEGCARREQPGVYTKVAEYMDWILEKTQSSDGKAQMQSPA

Ki (bovine trypsin (bovine)): 0.13 nM | Ki (human plasmin (human)): 1.9 nM
Substance: native human placental bikunin isolated from placenta (from UniProt O43291 28-203)

Ki [1]: 0.35 nM
Substance: recombinant placental bikunin (102-159) expressed in yeast SC101 (from UniProt O43291 129-186)

Ki [2]: 0.4 nM
Substance: synthetic placental bikunin (7-64), first preparation (from UniProt O43291 34-91)

fold higher Ki than aprotinin [3]: 20 fold | Ki [2]: 0.4 nM | Ki [4]: 0.4 nM
Substance: synthetic placental bikunin (102-159) (from UniProt O43291 129-186)
